Reference: patent publication US12428627B2, “Mutant p-hydroxyphenylpyruvate dioxygenase, and coding nucleic acid and use thereof” (Qingdao Kingagroot Chemical Compound Co., Ltd., priority 2018, dated 2025)

How the values were obtained:
[1] = system: OsHPPD; assay: HPPD enzyme activity assay: Km, Kcat and Kcat/Km of OsHPPDs; type: biochemical, Oryza sativa; conditions: substrate 4-HPP
Experimental: The rice OsHPPD protein and homogentisate 1,2-dioxygenase (HGD) were obtained by heterologously expressed in E. coli wherein the gene was inserted into the pET 15b expression vector and expressed in the BL21 (DE3) expression strain, and purified by the Ni-NTA resin. • (1) The HPPD open reading frame (ORF) of the positive clone was cloned into the pET-15b vector to form a 6His-HPPD expression vector, and transformed into the BL21 (DE3) cell. The expression strain was inoculated in 10 mL of 2×YT culture medium, and cultivated overnight on a shaker at 37° C. and 200 rpm. The 10 mL of the culture was inoculated in 1 L of 2×YT culture medium and cultivated until the OD600 reached 0.6-0.8, cooled to a temperature of 16° C., and subjected to induced-expression with 0.2 mM IPTG (isopropyl thiogalactoside) overnight. The strains were collected by centrifugation at 2800×g. • (2) The collected strains were re-suspended with the buffer A (50 mM Tris pH 8.0, 500 mM NaCl, 20 mM imidazole), to which PMSF (phenylmethanesulfonyl fluoride) at the final concentration of 1 mM and 250 μL of a protease inhibitor cocktail (i.e., a mixture of multiple protease inhibitors), and mixed. The cells were broken by ultrasound in ice-bath (40% total power, work for 3 seconds/6 seconds interval, 2×30 minutes (Ningbo Scientz Biotechnology Co., Ltd., Ningbo, China)), and centrifuged at 12000 rpm at 4° C. for 30 minutes; and the supernatant was filtered with a 0.22 μm filter membrane. • (3) Purification with the Ni-NTA column: the supernatant was in contact with the Ni-NTA resin, then rinsed with a buffer A containing 50 mM imidazole to remove the impurities, and finally, eluted with an elution buffer containing 400 mM imidazole. • (4) The approximate purity of the protein of interest was analyzed by SDS-PAGE. The eluates containing of the protein of interest were combined and concentrated by an ultrafiltration device (10 kDa molecular weight cut-off, Amicon Ultra). The solution was replaced with a solution containing 20 mM Tris-HCl and having a pH of 7.5 for at least 3 times to desalt. The total protein concentration was determined by the BCA method.
• 1. The activity of a HPPD enzyme was determined by detecting the conversion of 4-hydroxyphenylpyruvate (4-HPP) to homogentisic acid (HGA) catalyzed by the HPPD enzyme and the conversion of HGA to maleylacetoacetate (MAA) catalyzed by homogentisate dioxygenase. […] 6 μl of 4-hydroxyphenylpyruvate (4-HPP) having a concentration that was as 50 times as the final concentration of the substrate were added to an ELSA plate, and then 294 μL of hydroxyethylpiperazine ethanesulfonic acid (HEPES) with a final concentration of 25 mM and pH of 7, 2 mM of Vitamin C, 10 mM FeSO4, 50 nM homogentisate dioxygenase and 5 to 240 nM HPPD enzyme were added thereto at one time. The final concentration of reaction substrate 4-HPP usually ranged from 1 to 100 μM. • 3. The absorbance changes of the reaction wells at 318 nm were continuously monitored by a UV ELISA detector (ReadMax 1900 photoabsorption type full-wavelength microplate reader) (Shanghai). • 4. Determination of Km, Kcat and Kcat/Km of OsHPPDs
Vmax is the maximum catalytic reaction rate achievable by enzymatic catalysis. The Michaelis constant Km is the concentration of a substrate required when the enzyme catalyzed the reaction to achieve half of the maximum rate (Vmax). The Km value is a constant and independent of the enzyme concentration, and altered as substrate type, reaction temperature, pH, and ionic strength changed. […] is a catalytic constant of an enzyme and referred to the number of substrate molecules that could be catalyzed by an enzyme molecule or enzyme active center per second. KCat/Km represents the catalytic efficiency of enzyme. It could be seen from the data in the table that the catalytic efficiency of most HPPD mutants was enhanced.

[2] = system: transgenic rice (Zhonghua 11); assay: Herbicide resistance of transgenic rice seedlings (T0) on medium containing tembotrione; type: in vivo; conditions: T0 transgenic seedlings overexpressing the mutant, differentiation medium
Source text: • 1. Construction of overexpression vector • 1) Primers: primers were designed according to the selected restriction sites and the nucleotide sequence of the gene itself to amplify the three-site mutant HPPD (H141R/G342D/D370N) (OsHPPD3M). The designed primers were synthesized by Beijing Qingke Biotechnology Co., Ltd.: HPPD-F, […] ATGCCTCCCACT CCCACCC, HPPD-R, […] GGC. • 2) PCR amplification: the gene of interest was amplified by using the synthesized primer and Q5 DNA polymerase (NEB, New England Biolabs, Boston, USA). The amplified product was assayed by agarose gel electrophoresis, and the product was recovered according to operational instructions of the TIANquick Midi Purification kit. After the completion of the recovery, the concentration of extracted DNA was determined by Nanodrop. • 3) Construction of a rice overexpression vector: the rice overexpression vector pCAMBIA1301-OsHPPD3M was constructed with the recovered HPPD fragments and plasmid pCAMBIA1301 digested by KpnI and HindIII by using the HB-in Fusions™ seamless cloning kit of HanBio Biotechnology Co., Ltd., (Shanghai), and then transformed into the competent E. coli DH5α to obtain a positive clone; the positive clone was transformed into Agrobacterium after sequencing and restriction endonuclease digestion. • 2. […]

B1: H141R/G342D/D370N: three-site mutant rice HPPD (OsHPPD3M) (protein, listed as Oryza sativa)
chain: MPPTPTPTATTGAVSAAAAAGENAGFRLVGHRRFVRANPRSDRFQALAFHHVELWCADAASAAGRFAFALGAPLAARSDLSTGNSAHASLLLRSASVAFLFTAPYGGDHGVGADAATTASIPSFSPGAARRFAADHGLAVRAVALRVADAADAFRASVAAGARPAFQPADLGGGFGLAEVELYGDVVLRFVSHPDGADAPFLPGFEGVSNPGAVDYGLRRFDHVVGNVPELAPVAAYISGFTGFHEFAEFTAEDVGTAESGLNSVVLANNAETVLLPLNEPVHGTKRRSQIQTYLDHHGGPGVQHIALASDDVLGTLREMRARSAMGGFEFLAPPPPNYYDDVRRRAGDVLSEEQINECQELGVLVDRDNQGVLLQIFTKPVGDRPTFFLEMIQRIGCMEKDESGQEYQKGGCGGFGKGNFSELFKSIEEYEKSLEAKQAPTVQGS
modifications: The amino acid sequence of Wild-Type rice HPPD protein (OsHPPD _WT)
- Km [1]: 10.9 µM
- tembotrione concentration in culture medium tolerated (remains green) [2]: 3 µM
